Results: patent US20180036256

Experiments:
[1] = biological target: GST-LSD1 (UniProt O60341)
[2] = biological target: GST-LSD1 K114A (UniProt O60341)

Substance: GST-G9A aa786-1210
- methylation at K114 in vitro (methylation assay, Western blot with anti-LSD1 K114me2) [1]: GST-LSD1 but not GST-LSD1 K114A is methylated at K114 by G9A in the presence of SAM
- methylation at K114 in vitro (methylation assay, Western blot with anti-LSD1 K114me2) [2]: GST-LSD1 but not GST-LSD1 K114A is methylated at K114 by G9A in the presence of SAM
